These results are taken from the supplement of paper PMC10567573.

First the molecules themselves.
B1: CPXM2 (parent)
chain: TASTKNCMVGYDMGATRCDFTLSK
B2: GMCL1 (parent)
chain: RPDTGDDAAGHGFCYCAGSHKRKR
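Also: lentivirally expressed fusions sorted by FACS into six bins by GFP to DsRed ratio, PSI derived from sequencing read proportions per bin multiplied by bin number.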

The variants in the first series derive from B1. The experiment in a line: protein stability index of a GFP-peptide fusion (GPS, HEK-293T) (PSI 1-6); higher = more stable. Conditions: c terminus: a fixed tail appended.
For TASTKNCMVGYDMGATRCDRTLSK [F20R], the protein stability index was determined as 3.63. Still for that read-out and setting: the value for TASTKNCMVGYDMGATRCDTTLSK [F20T] was 3.88; that for TASTKNCMVGYDMGATRCDITLSK [F20I] was 2.69. For the variant TASTKNCMVGYDMGATRCDHTLSK [F20H], the protein stability index was 3.5. The same measure, in the same setting: the value for TASTKNCMVGYDMGATRCDETLSK [F20E] was 4.26; that for TASTKNCMVGYDMGATRCDKTLSK [F20K] was 3.67; that for TASTKNCMVGYDMGATRCDATLSK [F20A] was 2.51. Still for that read-out and setting: the value for TASTKNCMVGYDMGATRCDVTLSK [F20V] was 2.81.

The next series covers variants of B2. The series is described as above. The note with it: c terminus: a fixed tail appended.
Turning to RPVTGDDAAGHGFCYCAGSHKRKR [D3V], the protein stability index was found to be 3.91. Same read-out and setting: the value for RPNTGDDAAGHGFCYCAGSHKRKR [D3N] was 3.31; that for RPLTGDDAAGHGFCYCAGSHKRKR [D3L] was 3.14; that for RPYTGDDAAGHGFCYCAGSHKRKR [D3Y] was 3.15. As to RPRTGDDAAGHGFCYCAGSHKRKR [D3R], the protein stability index turned out to be 3.19. Same read-out and setting: the value for RPPTGDDAAGHGFCYCAGSHKRKR [D3P] was 3.64. Same read-out and setting: to RPFTGDDAAGHGFCYCAGSHKRKR [D3F] belongs 2.76; to RPATGDDAAGHGFCYCAGSHKRKR [D3A], 2.62. On the same count and under the same terms, to RPHTGDDAAGHGFCYCAGSHKRKR [D3H] belongs 3.4.

Turning to RPSTGDDAAGHGFCYCAGSHKRKR [D3S], the protein stability index was found to be 3.14.

Consider RPWTGDDAAGHGFCYCAGSHKRKR [D3W], for which the protein stability index is 3.04. Same read-out and setting: the value for RPTTGDDAAGHGFCYCAGSHKRKR [D3T] was 2.86; that for RPCTGDDAAGHGFCYCAGSHKRKR [D3C] was 2.97; that for RPKTGDDAAGHGFCYCAGSHKRKR [D3K] was 3.62. For RPMTGDDAAGHGFCYCAGSHKRKR [D3M], the protein stability index is 2.3. As for RPITGDDAAGHGFCYCAGSHKRKR [D3I], the protein stability index came out at 3.29.

RPGTGDDAAGHGFCYCAGSHKRKR [D3G]: the protein stability index was 2.19. With RPETGDDAAGHGFCYCAGSHKRKR [D3E], the protein stability index was 2.41. On the same count and under the same terms, to RPQTGDDAAGHGFCYCAGSHKRKR [D3Q] belongs 2.51. Still for that read-out and setting: the value for PPDTGDDAAGHGFCYCAGSHKRKR [R1P] was 2.71; that for GPDTGDDAAGHGFCYCAGSHKRKR [R1G] was 3.97; that for MPDTGDDAAGHGFCYCAGSHKRKR [R1M] was 3.16. Still for that read-out and setting: the value for TPDTGDDAAGHGFCYCAGSHKRKR [R1T] was 2.97; that for YPDTGDDAAGHGFCYCAGSHKRKR [R1Y] was 2; that for IPDTGDDAAGHGFCYCAGSHKRKR [R1I] was 2.34.

As for DPDTGDDAAGHGFCYCAGSHKRKR [R1D], the protein stability index turned out to be 2.92. Still for that read-out and setting: the value for SPDTGDDAAGHGFCYCAGSHKRKR [R1S] was 2.96; that for CPDTGDDAAGHGFCYCAGSHKRKR [R1C] was 2.99; that for QPDTGDDAAGHGFCYCAGSHKRKR [R1Q] was 2.98. The same measure, in the same setting: the value for WPDTGDDAAGHGFCYCAGSHKRKR [R1W] was 3.2; that for LPDTGDDAAGHGFCYCAGSHKRKR [R1L] was 3.2; that for EPDTGDDAAGHGFCYCAGSHKRKR [R1E] was 2.84.

Regarding HPDTGDDAAGHGFCYCAGSHKRKR [R1H], the protein stability index is 3.08.

With APDTGDDAAGHGFCYCAGSHKRKR [R1A], the protein stability index stood at 2.89. Still for that read-out and setting: to VPDTGDDAAGHGFCYCAGSHKRKR [R1V] belongs 2.5; to FPDTGDDAAGHGFCYCAGSHKRKR [R1F], 1.76; to KPDTGDDAAGHGFCYCAGSHKRKR [R1K], 2.99. With NPDTGDDAAGHGFCYCAGSHKRKR [R1N], the protein stability index amounted to 2.83. On the same count and under the same terms, to RPDIGDDAAGHGFCYCAGSHKRKR [T4I] belongs 3.06; to RPDGGDDAAGHGFCYCAGSHKRKR [T4G], 3.93; to RPDFGDDAAGHGFCYCAGSHKRKR [T4F], 3.28. On the same count and under the same terms, the value for RPDWGDDAAGHGFCYCAGSHKRKR [T4W] was 2.71. Same read-out and setting: the value for RPDEGDDAAGHGFCYCAGSHKRKR [T4E] was 3.16; that for RPDQGDDAAGHGFCYCAGSHKRKR [T4Q] was 3.47; that for RPDPGDDAAGHGFCYCAGSHKRKR [T4P] was 2.96.

In the case of RPDDGDDAAGHGFCYCAGSHKRKR [T4D], the protein stability index is 3.79. As for RPDKGDDAAGHGFCYCAGSHKRKR [T4K], the protein stability index amounted to 3.14. Take RPDVGDDAAGHGFCYCAGSHKRKR [T4V]: the protein stability index was 3. Same read-out and setting: the value for RPDAGDDAAGHGFCYCAGSHKRKR [T4A] was 3.06; that for RPDRGDDAAGHGFCYCAGSHKRKR [T4R] was 3.6; that for RPDHGDDAAGHGFCYCAGSHKRKR [T4H] was 3.11.

For the variant RPDCGDDAAGHGFCYCAGSHKRKR [T4C], the protein stability index came to 2.14.

Turning to RPDNGDDAAGHGFCYCAGSHKRKR [T4N], the protein stability index is 2.97. On the same count and under the same terms, the value for RPDLGDDAAGHGFCYCAGSHKRKR [T4L] was 2.81; that for RPDMGDDAAGHGFCYCAGSHKRKR [T4M] was 2.98. Still for that read-out and setting: the value for RPDSGDDAAGHGFCYCAGSHKRKR [T4S] was 3.06. With RPDYGDDAAGHGFCYCAGSHKRKR [T4Y], the protein stability index turned out to be 2.87. Same read-out and setting: to RPDTEDDAAGHGFCYCAGSHKRKR [G5E] belongs 2.93; to RPDTDDDAAGHGFCYCAGSHKRKR [G5D], 2.89; to RPDTFDDAAGHGFCYCAGSHKRKR [G5F], 2.59. As to RPDTMDDAAGHGFCYCAGSHKRKR [G5M], the protein stability index worked out at 2.84. Still for that read-out and setting: to RPDTKDDAAGHGFCYCAGSHKRKR [G5K] belongs 3.45; to RPDTLDDAAGHGFCYCAGSHKRKR [G5L], 3.1. RPDTCDDAAGHGFCYCAGSHKRKR [G5C]: the protein stability index was 3.63. In the case of RPDTIDDAAGHGFCYCAGSHKRKR [G5I], the protein stability index worked out at 3.28. Regarding RPDTHDDAAGHGFCYCAGSHKRKR [G5H], the protein stability index turned out to be 2.48. Take RPDTADDAAGHGFCYCAGSHKRKR [G5A]: the protein stability index worked out at 3.37. On the same count and under the same terms, to RGDTGDDAAGHGFCYCAGSHKRKR [P2G] belongs 3.01; to RIDTGDDAAGHGFCYCAGSHKRKR [P2I], 3.08; to RADTGDDAAGHGFCYCAGSHKRKR [P2A], 3.02.

In the case of RMDTGDDAAGHGFCYCAGSHKRKR [P2M], the protein stability index was determined as 3.05. On the same count and under the same terms, the value for RQDTGDDAAGHGFCYCAGSHKRKR [P2Q] was 2.91. Turning to RDDTGDDAAGHGFCYCAGSHKRKR [P2D], the protein stability index stood at 3.46. Same read-out and setting: the value for RVDTGDDAAGHGFCYCAGSHKRKR [P2V] was 2.89; that for RTDTGDDAAGHGFCYCAGSHKRKR [P2T] was 2.3; that for RLDTGDDAAGHGFCYCAGSHKRKR [P2L] was 2.77. On the same count and under the same terms, to RHDTGDDAAGHGFCYCAGSHKRKR [P2H] belongs 2.96.

Consider RSDTGDDAAGHGFCYCAGSHKRKR [P2S], for which the protein stability index is 2.95. Still for that read-out and setting: the value for RRDTGDDAAGHGFCYCAGSHKRKR [P2R] was 2.85. Take RNDTGDDAAGHGFCYCAGSHKRKR [P2N]: the protein stability index worked out at 3.27.

Consider RWDTGDDAAGHGFCYCAGSHKRKR [P2W], for which the protein stability index came to 3.4. On the same count and under the same terms, the value for RFDTGDDAAGHGFCYCAGSHKRKR [P2F] was 2.91; that for REDTGDDAAGHGFCYCAGSHKRKR [P2E] was 3.14; that for RYDTGDDAAGHGFCYCAGSHKRKR [P2Y] was 3.41. Take RKDTGDDAAGHGFCYCAGSHKRKR [P2K]: the protein stability index is 3.35. On the same count and under the same terms, the value for RCDTGDDAAGHGFCYCAGSHKRKR [P2C] was 3.23.
